Consider 1 molecule from patent EP4578463A1, “ENDO-180 TARGETED ANTIBODY-DRUG CONJUGATES” (Oncomatryx Biopharma, S.L., priority 2023, dated 2025).

Substitutions are numbered along the chain they refer to. Names may count otherwise.

For test [1], the target named is T1, human Endo180-His (aa: 31-513; comprising the first four N-terminal domains) (human, UniProt Q9UBG0 31-513).
T1 construct: In-house produced; also called huEndo; human Endo180-His molecule; not shown: His tag
T1 sequence: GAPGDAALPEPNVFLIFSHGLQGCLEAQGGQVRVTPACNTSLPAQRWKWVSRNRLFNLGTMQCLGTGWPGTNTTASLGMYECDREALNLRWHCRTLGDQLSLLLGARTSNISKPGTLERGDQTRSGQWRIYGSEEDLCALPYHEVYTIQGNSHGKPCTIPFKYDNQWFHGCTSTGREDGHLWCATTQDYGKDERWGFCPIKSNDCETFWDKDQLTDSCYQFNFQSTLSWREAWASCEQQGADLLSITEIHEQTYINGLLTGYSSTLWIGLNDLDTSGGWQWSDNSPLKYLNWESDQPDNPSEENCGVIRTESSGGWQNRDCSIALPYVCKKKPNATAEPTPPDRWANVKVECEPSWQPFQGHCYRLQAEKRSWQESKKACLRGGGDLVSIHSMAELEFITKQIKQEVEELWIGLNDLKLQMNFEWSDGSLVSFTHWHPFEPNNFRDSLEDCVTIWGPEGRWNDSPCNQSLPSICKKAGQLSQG
Put plainly: ELISA, immobilized human Endo180-His. In general terms: An ELISA detects its analyte on a solid surface through an enzyme-linked reagent.

The target of test [2] is T2, human Endo180-moFc DI-DIV variant region 1 (N233E, D234G, T237S, Q243P, D246S) (human, UniProt Q9UBG0 31-513).
T2 construct: Domain III residues swapped to those of MRC1; not shown: murine Fc
T2 chain: T1 sequence with N203E, D204G, T207S, Q213P, D216S
Put plainly: ELISA, 10 nM IgG on immobilized variant (3 µg/ml).

Test [3] concerns the target T3, human Endo180-moFc DI-DIV variant region 2 (Q254K, T256A, S258T, E261Q) (human, UniProt Q9UBG0 31-513).
T3 construct: not shown: murine Fc
T3 chain: T1 sequence with Q224K, T226A, S228T, E231Q
Put plainly: ELISA, 10 nM IgG on immobilized variant (3 µg/ml).

B1: Human IgG1 G7V with a wildtype γ1 heavy chain (antibody, V domains shown)
VH: EVQLVESGGGLVKPGGSLRLSCAASGFTFSSYSMNWVRQAPGKGLEWVANIKPDGSERHSVDSVKGRFTISRDNSKNSLYLQMNSLRAEDTAVYYCARPGAGRLDYWGQGTLVTVSS
VL: SSELTQDPAVSVALGQTVRITCQGDSLRSYYASWYQQKPGQAPVLVVYGKNNRPSGIPDRFSGSSSGNTASLTITGAQAEDEADYYCNSRDSSGNPWAFGGGTKVTVLG
notes: Naked antibody, made in HEK293-6E (lab scale) or CHO (1 L scale); also called IgG G7V; OMTX007-G7V
As usually defined, the EC50 is the concentration giving half of the maximal effect. Lower therefore signals a more potent agent. In test [1], B1 displayed an EC50 of 4.7 nM. In addition, the binding result in test [2] and in test [3] was “binds” throughout.
